Test results published in patent publication US20230129812A1, “COMPOSITIONS AND METHODS FOR TREATING PULMONARY HYPERTENSION” (Acceleron Pharma Inc., priority 2020, published 2023).
“Also recorded” adds a separate entry of the source.

Key:
activin B = target: T1, activin B (Homo sapiens, UniProt P09529); experiment: Biacore ligand binding profile, ALK4-Fc:ActRIIB-Fc heterodimer vs homodimers, anti-Fc capture (Example 13, Table 13)
T1 sequence (P09529 293-407): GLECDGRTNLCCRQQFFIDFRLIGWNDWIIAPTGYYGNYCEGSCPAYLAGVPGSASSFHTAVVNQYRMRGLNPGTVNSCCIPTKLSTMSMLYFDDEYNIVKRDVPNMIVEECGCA
Procedure: (§1) A Biacore™-based binding assay was used to compare ligand binding selectivity of the ALK4-Fc:ActRIIB-Fc heterodimeric complex described above with that of ActRIIB-Fc and ALK4-Fc homodimer complexes. The ALK4-Fc:ActRIeB-Fc heterodimer, […], and ALK4-Fc homodimer were independently captured onto the system using an anti-Fc antibody. Ligands were injected and allowed to flow over the captured receptor protein. Results are summarized in Table 13 below, in which ligand off-rates (kd) most indicative of effective polypeptides are denoted in bold.

BMP10 = target: T2, BMP10 (Homo sapiens, UniProt O95393); experiment: as above
T2 sequence (O95393 317-424): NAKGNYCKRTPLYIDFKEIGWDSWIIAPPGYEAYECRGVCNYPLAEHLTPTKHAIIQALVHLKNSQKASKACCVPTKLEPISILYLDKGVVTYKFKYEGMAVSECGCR
Procedure: as §1

GDF11 = target: T3, GDF11 (Homo sapiens, UniProt O95390); experiment: as above
T3 sequence (O95390 299-407): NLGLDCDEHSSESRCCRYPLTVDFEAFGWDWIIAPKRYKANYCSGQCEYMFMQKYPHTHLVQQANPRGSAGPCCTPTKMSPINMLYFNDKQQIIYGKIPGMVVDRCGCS
Procedure: as §1

GDF8 [1] = target: T4, GDF8 (Homo sapiens, UniProt O14793); experiment: as above
T4 sequence (O14793 267-375): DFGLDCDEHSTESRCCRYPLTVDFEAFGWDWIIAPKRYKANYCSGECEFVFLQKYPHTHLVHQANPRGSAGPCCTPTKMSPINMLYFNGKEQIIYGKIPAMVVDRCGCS
Procedure: as §1

activin A [2] = target: T5, activin A (Homo sapiens, UniProt P08476); experiment: as above
T5 sequence (P08476 311-426): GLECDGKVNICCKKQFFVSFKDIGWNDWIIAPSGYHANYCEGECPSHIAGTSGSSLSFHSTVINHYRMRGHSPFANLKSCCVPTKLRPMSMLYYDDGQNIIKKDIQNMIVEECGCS
Procedure: as §1

BMP6 = target: T6, BMP6 (Homo sapiens, UniProt P22004); experiment: as above
T6 sequence (P22004 375-513): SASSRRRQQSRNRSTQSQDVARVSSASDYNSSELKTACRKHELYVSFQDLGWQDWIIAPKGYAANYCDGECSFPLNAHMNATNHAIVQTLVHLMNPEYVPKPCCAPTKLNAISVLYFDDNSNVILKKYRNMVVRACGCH
Procedure: as §1

BMP9 = target: T7, BMP9 (Homo sapiens, UniProt Q9UK05); experiment: as above
T7 sequence (Q9UK05 320-429): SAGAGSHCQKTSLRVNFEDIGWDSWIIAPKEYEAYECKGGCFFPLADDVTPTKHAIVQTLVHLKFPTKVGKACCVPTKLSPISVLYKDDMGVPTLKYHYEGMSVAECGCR
Procedure: as §1

GDF8 [3] = target: T4, GDF8; experiment: A-204 reporter gene assay, pGL3(CAGA)12 luciferase; assay type: cell-based
From the text: An A-204 reporter gene assay was used to evaluate the effects of ActRIIB-Fc proteins and ActRIIB variant Fc fusion polypeptides on signaling by GDF-11 and activin A. Cell line: human rhabdomyosarcoma (derived from muscle). Reporter vector: pGL3(CAGA)12 (described in Dennler et al, 1998, EMBO 17: 3091-3100). The CAGA12 motif is present in TGF-beta responsive genes (e.g., PAI-1 gene), so this vector is of general use for factors signaling through SMADs.
Day 1: Split A-204 cells into 48-well plate.
Day 2: A-204 cells transfected with 10 ug pGL3(CAGA)12 or pGL3(CAGA)12(10 ug)+pRLCMV (1 pg) and Fugene.
Day 3: Add factors (diluted into medium+0.1% BSA). Inhibitors need to be preincubated with factors for 1 hr before adding to cells. Six hrs later, cells were rinsed with PBS and lysed.
This is followed by a luciferase assay.
As described below, ActRIIB variants were also tested in this assay.
In addition, an A-204 Reporter Gene Assay was used to evaluate the effects of ALK4-Fc:ActRIIB-Fc heterodimer and ActRIIB-Fc:ActRIIB-Fc homodimer on signaling by activin A, activin B, GDF11, GDF8, BMP10, and BMP9. Cell line: Human Rhabdomyosarcoma (derived from muscle). Reporter vector: pGL3(CAGA)12 (as described in Dennler et al, 1998, EMBO 17: 3091-3100). The CAGA12 motif is present in TGFβ responsive genes (PAI-1 gene), so this vector is of general use for factors signaling through Smads. An exemplary A-204 Reporter Gene Assay is outlined below. • Day 1: Split A-204 cells into 48-well plate. • Day 2: A-204 cells transfected with 10 ug pGL3(CAGA)12 or pGL3(CAGA)12(10 ug)+pRLCMV (1 ug) and Fugene. • Day 3: Add factors (diluted into medium+0.1% BSA). Inhibitors need to be pre-incubated with Factors for about one hr before adding to cells. About six hrs later, cells are rinsed with PBS and then lysed.
Following the above steps, a Luciferase assay was performed.

activin A [4] = target: T5, activin A; experiment: A-204 reporter gene assay, pGL3(CAGA)12 luciferase; assay type: cell-based; settings: A-204 reporter gene assay
Procedure, shortened: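 Human rhabdomyosarcoma A-204 cells transfected with SMAD-responsive pGL3(CAGA)12 luciferase reporter (optionally with pRLCMV). Ligand in medium + 0.1% BSA, preincubated ~1 h with Fc-fusion inhibitor before addition to cells; after ~6 h cells lysed and luciferase activity measured.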

B1: ALK4-Fc:ActRIIB-Fc heterodimer: heteromeric complex of extracellular domains of human ActRIIB and human ALK4, each separately fused to an Fc domain with a linker (protein)
chain 1: GRGEAETRECIYYNANWELERTNQSGLERCEGEQDKRLHCYASWRNSSGTIELVKKGCWLDDFNCYDRQECVATEENPQVYFCCCEGNFCNERFTHLPEAGGPEVTYEPPPTAPTGGGTHTCPPCPAPELLGGPSVFLFPPKPKDTLMISRTPEVTCVVVDVSHEDPEVKFNWYVDGVEVHNAKTKPREEQYNSTYRVVSVLTVLHQDWLNGKEYKCKVSNKALPAPIEKTISKAKGQPREPQVYTLPPSRKEMTKNQVSLTCLVKGFYPSDIAVEWESNGQPENNYKTTPPVLKSDGSFFLYSKLTVDKSRWQQGNVFSCSVMHEALHNHYTQKSLSLSPGK
chain 2: SGPRGVQALLCACTSCLQANYTCETDGACMVSIFNLDGMEHHVRTCIPKVELVPAGKPFYCLSSEDLRNTHCCYTDYCNRIDLRVPSGHLKEPEHPSMWGPVETGGGTHTCPPCPAPELLGGPSVFLFPPKPKDTLMISRTPEVTCVVVDVSHEDPEVKFNWYVDGVEVHNAKTKPREEQYNSTYRVVSVLTVLHQDWLNGKEYKCKVSNKALPAPIEKTISKAKGQPREPQVYTLPPSREEMTKNQVSLTCLVKGFYPSDIAVEWESNGQPENNYDTTPPVLDSDGSFFLYSDLTVDKSRWQQGNVFSCSVMHEALHNHYTQKSLSLSPG
- activin B binding (activin B; Example 13): enhanced binding to activin B compared with either homodimer
- ka (activin B; ligand Activin B, Table 13): 7.1e+06 M⁻¹ s⁻¹
- kd (activin B; ligand Activin B, Table 13): 4e-05 s⁻¹
- BMP10 binding (BMP10; Example 13): substantially reduced binding
- ka (BMP10; ligand BMP10, Table 13): 5.6e+07 M⁻¹ s⁻¹
- kd (BMP10; ligand BMP10, Table 13): 0.0041 s⁻¹
- GDF11 binding (GDF11; Example 13): strong binding
- ka (GDF11; ligand GDF11, Table 13): 3.8e+07 M⁻¹ s⁻¹
- kd (GDF11; ligand GDF11, Table 13): 0.00011 s⁻¹
- GDF8 binding (GDF8 [1]; Example 13): strong binding
- ka (GDF8 [1]; ligand GDF8, Table 13): 390000 M⁻¹ s⁻¹
- kd (GDF8 [1]; ligand GDF8, Table 13): 0.00021 s⁻¹
- activin A binding (activin A [2]; Example 13): strong binding
- ka (activin A [2]; ligand Activin A, Table 13): 1.3e+07 M⁻¹ s⁻¹
- kd (activin A [2]; ligand Activin A, Table 13): 0.00015 s⁻¹
- BMP6 binding (BMP6; Example 13): intermediate-level binding
- ka (BMP6; ligand BMP6, Table 13): 2e+06 M⁻¹ s⁻¹
- kd (BMP6; ligand BMP6, Table 13): 0.0055 s⁻¹
- BMP9 binding (BMP9; Example 13): substantially reduced binding; also recorded: low or no observable affinity
- kd (BMP9; ligand BMP9, Table 13): Transient*
- inhibition of GDF8 signaling (GDF8 [3]): potent inhibitors
- inhibition of activin A signaling (activin A [4]): potent inhibitors
